Test results reported in patent US20220267460A1.

How the values were obtained:
FcγRIIIa = FcγRIIIa (UniProt P08637); assay: cell-based or functional assay
[1] = target: human FcγRIIa-H variant (Histidine at amino acid 131) (human) (UniProt P12318); assay: cell-based or functional assay
Sequence of human FcγRIIa-H variant (Histidine at amino acid 131) (human) (P12318 34-317, change not shown): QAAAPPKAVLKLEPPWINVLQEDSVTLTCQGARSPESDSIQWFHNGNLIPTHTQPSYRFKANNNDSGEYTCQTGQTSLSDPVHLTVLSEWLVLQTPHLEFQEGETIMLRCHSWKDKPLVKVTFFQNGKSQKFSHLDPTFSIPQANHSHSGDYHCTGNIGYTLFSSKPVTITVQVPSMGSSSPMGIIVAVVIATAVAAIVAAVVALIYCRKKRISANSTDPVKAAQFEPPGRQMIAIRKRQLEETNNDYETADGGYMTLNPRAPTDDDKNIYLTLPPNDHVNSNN

Sequence of FcγRIIIa (P08637 17-254 F176V limits assumed): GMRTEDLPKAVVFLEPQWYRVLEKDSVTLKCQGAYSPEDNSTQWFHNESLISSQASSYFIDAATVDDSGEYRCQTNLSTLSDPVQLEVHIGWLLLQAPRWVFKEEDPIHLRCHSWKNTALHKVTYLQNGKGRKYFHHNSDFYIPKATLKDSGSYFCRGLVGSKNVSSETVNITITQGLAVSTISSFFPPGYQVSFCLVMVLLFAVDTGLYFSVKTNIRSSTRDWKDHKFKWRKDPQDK

Substance	EC50 (nM) Mean, FcγRIIIa signaling in ADCC reporter assay (HEK-PD-L1 target cells, Jurkat/FcγRIIIa effector cells, luciferase) (FcγRIIIa)	EC50 (nM) Mean, FcγRIIa signaling in ADCP reporter assay (Raji target cells, Jurkat/FcγRIIa-H effector cells, luciferase) [1]	EC50 (nM) Mean, FcγRIIIa signaling in ADCC reporter assay (Raji target cells, Jurkat/FcγRIIIa effector cells, luciferase) (FcγRIIIa)
avelumab (Bavencio) monoclonal antibody, fucosylated	0.049 nM	–	–
obinutuzumab monoclonal antibody, fucosylated	–	7.1 nM	0.08 nM
